B1: MPH12 VH-FRGL / MPH12 VL-FRGL (antibody, V domains shown)
VH: QVQLVESGGGLVKPGGSLRLSCAASGFTFSGFYMKWIRQAPGKGLEWVSSISASGSYTNYADSVEGRFTISRDNAKNSLYLQMNSLRAEDTAVYYCARGDSYCGASACHGEFFHKWGQGTLVTVSS
VL: QSVLTQPPSVSGAPGQRVTISCTGSDSNIGADFDVHWYQQLPGTAPKLLIYGNINRPSGVPDRFSGSKSGTSASLAITGLQAEDEADYYCQSYDRSLHYVFGTGTKVTVL
notes: MPH12 variant; VH and VL only
B2: MPH12 VH-FRGL / MPH12 VL (antibody, V domains shown)
VH: B1 VH
VL: B1 VL with K68R, S74F, G79R, T103A
notes: MPH12 variant; VH and VL only
B3: MPH12 VH-FRGL / MPH12 VL-D25E (antibody, V domains shown)
VH: B1 VH
VL: B1 VL with D26E, K68R, S74F, G79R, T103A
notes: MPH12 variant; VH and VL only
B4: MPH12 VH-FRGL / MPH12 VL-D25S (antibody, V domains shown)
VH: B1 VH
VL: B1 VL with D26S, K68R, S74F, G79R, T103A
notes: MPH12 variant; VH and VL only
B5: MPH12 VH-D62E / MPH12 VL-FRGL (antibody, V domains shown)
VH: B1 VH with A23V, D62E, I70V, Y80F, Q82L, N84S
VL: B1 VL
notes: MPH12 variant; VH and VL only
B6: MPH12 VH-S63A / MPH12 VL-D25S (antibody, V domains shown)
VH: B1 VH with A23V, S63A, I70V, Y80F, Q82L, N84S
VL: B1 VL with D26S, K68R, S74F, G79R, T103A
notes: MPH12 variant; VH and VL only
B7: MPH12 VH-D62E / MPH12 VL-D25E (antibody, V domains shown)
VH: B1 VH with A23V, D62E, I70V, Y80F, Q82L, N84S
VL: B1 VL with D26E, K68R, S74F, G79R, T103A
notes: MPH12 variant; VH and VL only
B8: MPH12 VH-D62E / MPH12 VL-D25S (antibody, V domains shown)
VH: B1 VH with A23V, D62E, I70V, Y80F, Q82L, N84S
VL: B1 VL with D26S, K68R, S74F, G79R, T103A
notes: MPH12 variant; VH and VL only
B9: MPH12 VH-FRGL / MPH12 VL-S26A (antibody, V domains shown)
VH: B1 VH
VL: B1 VL with S27A, K68R, S74F, G79R, T103A
notes: MPH12 variant; VH and VL only
B10: MPH12 VH-S63A / MPH12 VL-D25E (antibody, V domains shown)
VH: B1 VH with A23V, S63A, I70V, Y80F, Q82L, N84S
VL: B1 VL with D26E, K68R, S74F, G79R, T103A
notes: MPH12 variant; VH and VL only
B11: MPH12 VH-D62E / MPH12 VL-S26A (antibody, V domains shown)
VH: B1 VH with A23V, D62E, I70V, Y80F, Q82L, N84S
VL: B1 VL with S27A, K68R, S74F, G79R, T103A
notes: MPH12 variant; VH and VL only
B12: MPH12 VH-S63A / MPH12 VL-FRGL (antibody, V domains shown)
VH: B1 VH with A23V, S63A, I70V, Y80F, Q82L, N84S
VL: B1 VL
notes: MPH12 variant; VH and VL only
B13: MPH12 VH-D62E / MPH12 VL (antibody, V domains shown)
VH: B1 VH with A23V, D62E, I70V, Y80F, Q82L, N84S
VL: B1 VL with K68R, S74F, G79R, T103A
notes: MPH12 variant; VH and VL only
B14: MPK144 (antibody, V domains shown)
VH: EVQLVESGGGLVRPGGSLRLSCAASGFTFTGYYMMWIRQAPGKGLEWISDISSSSSYTNYADSVKGRFAISRDNAQNTLYLQMNSLRAEDTAVYYCATEQVPSPGPFDLWGQGTLVTVSS
VL: QSVLTQPPSVSGAPGQRVTISCTGSSSNFGAGYDVHWYQQFPGTSPKLLIYRNTNRPSGVPDRFSGSKSGTSASLAITGLQAEDEADYYCQSYDRSLTGWVFGGGTKLTVL
notes: VH and VL only
B15: MPK196 (antibody, V domains shown)
VH: QVQLVESGGGLVKPGGSLRLSCAASRFKFGDYYMSWIRQAPGKGLEWVSNISPSSSYTNYADSVKGRFTISRDNANNLLYLQMNSLRAEDTAVYYCARESCSGGSCSLHGMDVWGQGTTVTVAS
VL: B14 VL with F29I, F41L, S45A, R52D, T54S, Q81R, E85D, T98G, W100S, V101I
notes: VH and VL only
B16: MPK153 (antibody, V domains shown)
VH: EVHLVESGGGLVKPGGSLRLSCAASGFTFTGYFMIWIRQAPGKGLEWISYISSSSNYINYADSVKGRFTISRDNGQNTLYLQMNSLRPDDTAVYYCATEQVPSPGPFDLWGQGTLVTVSS
VL: B14 VL with T19I, S25T, F29I, T44A, Y51F, N55D, T71S, T78A, T98D, L108V
notes: VH and VL only
B17: MPK155 (antibody, V domains shown)
VH: EVQLVESGGGLVKPGGSLRLSCEASGISLSGYYMIWIRQAPGKGLEWISSISSSSNYIDYADSVRGRFTISRHNGQNTLYLQMNSLRVEDTAVYFCATEQTPSPGPFDLWGQGILVTVSS
VL: B14 VL with S21F, S25T, F29L, N53Y, T71S, T78A, L97V, T98S
notes: VH and VL only
B18: MPK204 (antibody, V domains shown)
VH: B17 VH with E1Q, I27L, R65K, F95Y, I114T
VL: B14 VL with S25T, F29I, A31T, T71S, T78A, L97V, T98S
notes: VH and VL only
B19: MPK149 (antibody, V domains shown)
VH: QVQLVESGGGLVKPGGSLRLSCEASGFTISGYFMIWIRQAPGKGLEWISSISGSSTYTDYAESVKGRFTISRDNGRSTLYLQMNSLRVEDTAVYYCATEQTPSPGPFDLWGQGTLVTVSS
VL: B14 VL with L4V, S25T, F29I, K47R, Y51N, K68Q, T71S, T78A, L97V, T98S
notes: VH and VL only
B20: MPK174-v2 (antibody, V domains shown)
VH: B15 VH with Q1E, N76K
VL: B14 VL with F29I, F41L, S45A, R52D, T54S, Q81R, E85D, T98G, W100S, V101I
notes: VH and VL only
B21: MPK146 (antibody, V domains shown)
VH: QVQLVESGGGLVKPGGSLRLSCAASGFTFSGYYMIWIRQAPGKGLEWIASISGSSNYIDYADSVRGRFTISRDNARNILDLQMNSLRAGDTALYYCATEQVPSPGPFDLWGQGTLVTVSS
VL: B14 VL with S26N, F29L, S65A, T98S
notes: VH and VL only
B22: MPK151 (antibody, V domains shown)
VH: EVQLVESGGGLVKPGGSLRLSCAASGLTISGYYMIWIRQAPGKGLEWISDISASSTYTDYAESVKGRFSISRDNGQNTVYLQMNSLRAEDTAVYYCATEQTPSPGPFDLWGQGTLVTVSS
VL: B14 VL with R17K, V18I, S25G, N55F, T98S
notes: VH and VL only
B23: MPK152 (antibody, V domains shown)
VH: EVQLVESGGGLVKPGGSLRLSCAASGLTISGYYMIWIRQAPGKGLEWISYISGSSSYTNYADSVKGRFTISRDNGQNTLFLQMDSLRVEDTAVYFCATEETPSPGPFGLWGQGTLVTVSS
VL: B14 VL with L4V, S25T, F29I, Y51F, K68T, T71S, A82T, T98D, K107E
notes: VH and VL only
B24: MPK157 (antibody, V domains shown)
VH: EVQLVESGGGLVKPGGSLRLSCSASGFTLSGYNMNWVRQAPGKGLEWISYISASSSYINYADSVKGRFTISRDNGRSSLYLQMNSLRAEDTAVYFCTTQAELPGWFDPWGQGTLVTVSS
VL: QSVLTQPPSMSGAPGQRVTISCTGSSSNIGAGYDVNWYRQLPGTAPQLLIYRNTNRPSGVPDRFSGSNSGTSASLAITGLQADDEAHYYCQSYDRSLSGWVFGGGTKLTVL
notes: VH and VL only
B25: MPK150-v2 (antibody, V domains shown)
VH: B17 VH with S53G, N56T, L79I, D108E, Q112R
VL: QSVLTQPPSVSGAPGQRVTIFCTGTSSNIGTGYDVHWYQQFPGTSPKLLIFRNSNRPSGVPDRFSGSKSGSSASLAIAGLQAEDEADYYCQSYDRGVNGWVFGGGTKLTVL
notes: VH and VL only
B26: MPK142-v2 (antibody, V domains shown)
VH: EVQLVESGGGLVEPGGSLRLSCAASGFTISGYGMSWVRQAPGKGLEWVSSISASSSYIYYGDAMKGRITISRDNGWNSMYLQMNSLRTEDTAVYYCATAPIEPPYFDLWGRGTLVTVSS
VL: DIQLTQTPTSLSASVGDRVTFTCRASQNIGFYLNWYQQKPGKAPRLLIYGASNLQSGVPSRFSGSGAGTDFSLTISSLQPEDFATYYCQQSFNTPRTFGQGTKVEIN
notes: VH and VL only
B27: MPK145 (antibody, V domains shown)
VH: B26 VH
VL: QSVVTQPPSVSGAPGQRVTISCTGSSSNIGAGYDVHWYQQFPGKAPKVLIYGNNNRPSGVPDRFAASNSGASASLAITGLQAEDEAAYFCQSYDRRLSGPVFGGGTKLTVL
notes: VH and VL only
B28: MPK162 (antibody, V domains shown)
VH: EVQLVESGGGLVKPGDSLRLSCAASGFSLSSYYMFWIRQAPGKGLEWVSDISGGSTFTNYADSVKGRFTISRDNAKKVLYLQMNSLRVDDSAVYYCVRGSSISPNWFESWGQGALVTVSS
VL: QSVLTQPPSVSGAPGQRVTISCTGTSSNIGAGYDVHWYQQVPGTAPKLLIYGNSNRPSGVPDRFSGSKSGTAASLAINGLQTEDEAEYYCQSYDRSLTGSYVFGSGTRVFVR
notes: VH and VL only
B29: MPK158 (antibody, V domains shown)
VH: EVQLVESGGGLVKPGGSLRLSCAASGFSISGFYMIWIRQAPGKGLEWISDISASSSYIDYADSVKGRFTISRDNGQNTVHLLMNNLRADDTGVYYCAREQTPSPGPFDLWGQGTLVTVST
VL: QPVLTQPPSVSGAPGQRVTISCTGRSSNIGAGYDVHWYQHLPGTSPKLLIYRNSNRPSGVPDRFSGSTSGTSASLAITGLQADDEADYYCQAYDRILGGWAFGGGTKLTVL
notes: VH and VL only

Substitutions are numbered along the chain they refer to. Names and notes keep the numbering of the source.

These results are taken from patent publication US20260028391A1 (HUMABS BIOMED, published 2026).

For one assay, the target named is T1, DS-Cav1 RSV F (respiratory syncytial virus).
T1 construct: also called DC-VCav1
In words: ELISA on DS-Cav1 RSV F. For orientation: An ELISA detects its analyte on a solid surface through an enzyme-linked reagent.
In turn, B1 had a half-maximal effective concentration (EC50) of 0.0305 µg/mL.

B2 returned an EC50 of 0.0328 µg/mL.

B3 came in with a half-maximal effective concentration (EC50) of 0.034 µg/mL.

In turn, B4 gave an EC50 of 0.0219 µg/mL.

B5 showed an EC50 of 0.0267 µg/mL.

On to B6, for which the response was half-maximal at 0.0249 µg/mL (EC50).

B7 gave an EC50 of 0.0274 µg/mL.

With B8, the EC50 turned out to be 0.0236 µg/mL.

In the case of B9, the EC50 stood at 0.0397 µg/mL.

Molecule B10 registered an EC50 of 0.0406 µg/mL.

B11: the midpoint of the response, the EC50, lay at 0.031 µg/mL.

Consider B12, for which the EC50 turned out to be 0.0254 µg/mL.

For B13, the EC50 was found to be 0.0241 µg/mL.

The next assay concerns the target RSV fusion glycoprotein (RSV-F) (respiratory syncytial virus). As to the kind of experiment: SPR; F protein loaded on streptavidin sensors, mAb in solution.
Protocol: Binding affinity of mAbs for RSV-F protein, MPV-F D280 protein, and MPV-F N280 F variant protein was assessed using surface plasmon resonance (SPR).
As for B14, binding was characterised by a dissociation constant (Kd) of 1 pM.

Take B15: the affinity, expressed as Kd, was 1 pM.

Turning to B16, the dissociation constant Kd turned out to be 460 pM.

B17 displayed a dissociation constant Kd of 6.3 pM.

B18: binding was put at a Kd of 290 pM.

For B19, the affinity, expressed as Kd, was 1 pM.

Consider B20, for which the affinity, expressed as Kd, was 1 pM.

The molecule B21 returned a Kd of 9.5 pM.

In turn, B22 displayed a Kd of 80 pM.

B23 showed a Kd of 1 pM.

B24 registered an equilibrium dissociation constant (Kd) of 1 pM.

In the case of B25, the Kd worked out at 1 pM.

Molecule B26 displayed a Kd of 16000 pM.

B27: the Kd amounted to 1 pM.

As to B28, the Kd is 100000 pM.

Consider B29, for which the Kd was 1 pM.

By EC50 is commonly meant the concentration at which the effect is half-maximal. A high value points to lower potency in that assay. For orientation: Kd means a measure of binding affinity in units of concentration. Lower therefore signals higher affinity.
